Assay results from article PMC11681868.
Where no end group is shown, it is not given here. [ ]: non-standard residue; d: D form. pS = N[C@@H](COP(=O)(O)O)C(=O)O

How the values were obtained:
Assay in all cases: ITC; iTC200; 5 μM scFv in the cell, 50 μM peptide in the syringe; samples dialyzed against PBS; triplicate
[1] = molecular target: rabbit antibody A4 scFv H-S53A (rabbit)
[2] = molecular target: rabbit antibody A4 scFv H-T56A (rabbit)
[3] = molecular target: rabbit antibody A4 scFv H-S54A (rabbit)
Chain of rabbit antibody A4 scFv H-S54A (rabbit) (heavy, as listed by the source, chain 1 of 2): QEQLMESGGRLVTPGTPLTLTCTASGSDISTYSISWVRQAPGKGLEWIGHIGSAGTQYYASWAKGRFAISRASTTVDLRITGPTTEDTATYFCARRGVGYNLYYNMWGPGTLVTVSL
Chain of rabbit antibody A4 scFv H-S54A (rabbit) (light, as listed by the source, chain 2 of 2): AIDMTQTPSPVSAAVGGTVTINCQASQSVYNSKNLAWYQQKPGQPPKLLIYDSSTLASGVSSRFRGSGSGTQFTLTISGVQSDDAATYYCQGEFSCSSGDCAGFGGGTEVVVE

[4] = molecular target: rabbit antibody C7 scFv (wild type) (rabbit)
Chain of rabbit antibody C7 scFv (wild type) (rabbit) (heavy, as listed by the source, chain 1 of 2): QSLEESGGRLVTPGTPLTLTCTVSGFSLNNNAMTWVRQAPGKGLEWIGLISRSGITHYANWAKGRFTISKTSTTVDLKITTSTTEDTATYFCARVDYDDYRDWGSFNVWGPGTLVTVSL
Chain of rabbit antibody C7 scFv (wild type) (rabbit) (light, as listed by the source, chain 2 of 2): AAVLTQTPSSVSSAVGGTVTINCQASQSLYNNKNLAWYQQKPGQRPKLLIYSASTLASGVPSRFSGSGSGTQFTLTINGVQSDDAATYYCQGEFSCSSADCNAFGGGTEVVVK

[5] = molecular target: rabbit antibody C7 scFv H-S52A (rabbit)
Chain of rabbit antibody C7 scFv H-S52A (rabbit) (heavy, as listed by the source, chain 1 of 2): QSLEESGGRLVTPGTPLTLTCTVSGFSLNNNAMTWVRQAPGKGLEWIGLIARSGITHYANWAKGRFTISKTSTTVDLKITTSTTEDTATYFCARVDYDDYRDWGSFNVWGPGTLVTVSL

[6] = molecular target: rabbit antibody A4 scFv (wild type) (rabbit)
Chain of rabbit antibody A4 scFv (wild type) (rabbit) (heavy, as listed by the source, chain 1 of 2): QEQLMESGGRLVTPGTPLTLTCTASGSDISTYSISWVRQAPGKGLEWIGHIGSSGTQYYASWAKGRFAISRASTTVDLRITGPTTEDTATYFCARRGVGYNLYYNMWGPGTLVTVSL

[7] = molecular target: rabbit antibody C7 scFv H-S54A (rabbit)
Chain of rabbit antibody C7 scFv H-S54A (rabbit) (heavy, as listed by the source, chain 1 of 2): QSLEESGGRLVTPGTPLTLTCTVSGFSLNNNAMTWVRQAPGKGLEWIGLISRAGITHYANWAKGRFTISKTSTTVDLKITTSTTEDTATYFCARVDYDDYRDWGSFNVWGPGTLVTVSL

Chain of rabbit antibody A4 scFv H-T56A (rabbit) (heavy, as listed by the source, chain 1 of 2): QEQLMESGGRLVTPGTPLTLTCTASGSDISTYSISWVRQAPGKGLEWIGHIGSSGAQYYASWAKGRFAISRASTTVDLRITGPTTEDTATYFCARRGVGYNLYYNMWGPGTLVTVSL
Chain of rabbit antibody A4 scFv H-S53A (rabbit) (heavy, as listed by the source, chain 1 of 2): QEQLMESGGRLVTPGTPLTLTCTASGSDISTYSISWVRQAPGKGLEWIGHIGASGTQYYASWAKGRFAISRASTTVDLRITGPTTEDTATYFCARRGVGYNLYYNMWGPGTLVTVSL

Kd [1]: 3.55 nM | dH [1]: -24.9 kcal/mol | Kd [2]: 4 nM | dH [2]: -23 kcal/mol | Kd [3]: 6.95 nM | dH [3]: -23.5 kcal/mol | Kd [4]: 26.9 nM | dH [4]: -14.4 kcal/mol | Kd [5]: 664 nM | dH [5]: -11.1 kcal/mol | Kd [6]: 3.34 nM | dH [6]: -24.4 kcal/mol | Kd [7]: 95.3 nM | dH [7]: -13.3 kcal/mol
B1: phosphorylated Akt peptide (peptide)
peptide: RPHFPQF[pS]YSAS
